In paper PMC2674534:

Target: Sox9 (UniProt Q04887 1-507)
Test: EMSA

Sequence of Sox9 (Q04887 whole entry): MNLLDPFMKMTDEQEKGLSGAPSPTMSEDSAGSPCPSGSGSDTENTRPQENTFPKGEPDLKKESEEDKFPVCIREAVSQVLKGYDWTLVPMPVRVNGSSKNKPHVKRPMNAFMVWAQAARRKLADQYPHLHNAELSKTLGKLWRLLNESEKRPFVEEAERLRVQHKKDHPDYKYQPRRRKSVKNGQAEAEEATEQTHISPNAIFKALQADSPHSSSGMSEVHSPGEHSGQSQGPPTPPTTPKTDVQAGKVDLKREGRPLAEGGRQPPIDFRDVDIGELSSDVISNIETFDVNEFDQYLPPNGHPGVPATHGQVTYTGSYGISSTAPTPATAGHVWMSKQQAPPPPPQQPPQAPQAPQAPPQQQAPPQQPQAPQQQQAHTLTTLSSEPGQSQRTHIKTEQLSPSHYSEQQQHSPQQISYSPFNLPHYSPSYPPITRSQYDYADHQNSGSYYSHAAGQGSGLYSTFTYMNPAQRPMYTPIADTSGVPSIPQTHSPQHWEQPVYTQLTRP

B1: Col2a1 enhancer probe (Sox9-binding site) (dsDNA)
DNA 1: GCGCTTGAGAAAAGCCCCATTCATGAGAGGC
DNA 2: GCCTCTCATGAATGGGGCTTTTCTCAAGCGC
B1: binds.
